LC-MS intensity of recovered HTRA2 data for 1 substance are collected here from article PMC6723090.

The target of this test is synthetic CDR1 peptide … with N-terminal Biotin-[TTDS] linker (human). Put plainly: affinity purification with mass spectrometry; spike-in: 2 ug recombinant HTRA2 added to 5 mg homogenized pig retina; beads with CDR peptide, scrambled peptide or biotin only (n = 3); eluates on 1-D SDS-PAGE, gel region above 49 kDa digested with trypsin, LC-MS/MS intensity of HTRA2.

Turning to “recombinant HTRA2/Omi (Human Serine Protease, cat. no. C760) (from UniProt O43464 32-458) (enzyme)”, the LC-MS intensity of recovered HTRA2 came out at 4.2e+08.
